Here are results for ten molecules from patent publication US20070276125A1.

Positions of bridges follow the written chain, without caps; N, C: chain ends. No end group written: not given here.

Experiment [1] has as its target peroxidase-anti-peroxidase (PAP) immune complex (preformed immune complex of peroxidase and anti-peroxidase IgG). Description: reverse ELISA, competition: soluble histone pre-incubated with rabbit PAP, then histone-coated plate; lower = more inhibition.
Experiment [2] deals with human C1q (human) (UniProt P02745). Description: reverse ELISA: PAP on C1q-coated plate, no inhibitor.
Experiment [3] concerns the target FcγIII. Description: reverse ELISA: PAP on FcγIII-coated plate, no inhibitor.
Experiment [4] concerns the target FcγIIa. Description: reverse ELISA: PAP on FcγIIa-coated plate, no inhibitor.
For experiment [5], the target named is FcγIIb. Description: reverse ELISA: PAP on FcγIIb-coated plate, no inhibitor.
The target in experiment [6] is myelin basic protein (MBP, Sigma). Briefly: reverse ELISA: rabbit PAP on MBP-coated plate, no inhibitor.
Experiment [7] has as its target human C1q (human) (UniProt P02745). Description: reverse ELISA: rabbit PAP on C1q-coated plate, no inhibitor.
For experiment [8], the target named is FcγIII. Description: reverse ELISA: rabbit PAP on FcγIII-coated plate, no inhibitor.
For experiment [9], the target named is FcγIIa. Briefly: reverse ELISA: rabbit PAP on FcγIIa-coated plate, no inhibitor.
In experiment [10] the target is FcγIIb. Description: reverse ELISA: rabbit PAP on FcγIIb-coated plate, no inhibitor.
Experiment [11] concerns the target Histone (Sigma). Briefly: reverse ELISA: rabbit PAP on histone-coated plate, no inhibitor.
The target in experiment [12] is whole human IgG4. Briefly: reverse ELISA: immune complexes on IgG4-coated plate, no inhibitor.
The target in experiment [13] is myelin basic protein (MBP, Sigma). Briefly: reverse ELISA: binding of MBP to IgG PAP immune complexes, no inhibitor.
Experiment [14] addresses Histone (Sigma). Description: reverse ELISA: binding of histones to IgG PAP immune complexes, no inhibitor.
Experiment [15] has as its target peroxidase-anti-peroxidase (PAP) immune complex (preformed immune complex of peroxidase and anti-peroxidase IgG). Briefly: reverse ELISA, competition: soluble MBP pre-incubated with rabbit PAP, then MBP-coated plate; lower = more inhibition.
For experiment [16] the target is unchanged. Description: reverse ELISA, competition: pre-incubated with PAP, then RF-coated plate (competitor: RF); lower = more inhibition.
For experiment [17] the target is unchanged. Briefly: reverse ELISA, competition: peptide with immune complexes, IgG4-coated plate (competitor: IgG4); lower = more inhibition.
Experiment [18] has the same target. Briefly: reverse ELISA, competition: pre-incubated with PAP, then FcγIII-coated plate (competitor: FcγIII); lower = more inhibition.
Experiment [19] shares this target. Briefly: reverse ELISA, competition: pre-incubated with PAP, then FcγIIa-coated plate (competitor: FcγIIa); lower = more inhibition.
Experiment [20] has the same target. Description: reverse ELISA, competition: pre-incubated with PAP, then FcγIIb-coated plate (competitor: FcγIIb); lower = more inhibition.
The target is the same in experiment [21]. Briefly: reverse ELISA, competition: pre-incubated with rabbit PAP, then MBP-coated plate (competitor: MBP); lower = more inhibition.
Experiment [22] shares this target. Description: reverse ELISA, competition: pre-incubated with rabbit PAP, then histone-coated plate (competitor: histone); lower = more inhibition.
The target in experiment [23] is human monomeric IgG (Research Diagnostics). Briefly: RF test, competition: peptide pre-incubated with human monomeric IgG, washed, then 200 I.U. RF (competitor); OD = RF bound, lower = more inhibition.
Experiment [24] concerns the target peroxidase-anti-peroxidase (PAP) immune complex (preformed immune complex of peroxidase and anti-peroxidase IgG). Briefly: reverse ELISA, competition: pre-incubated with PAP, then C1q-coated plate (competitor: C1q); OD = PAP bound, lower = more inhibition.
For experiment [25] the target is unchanged. Description: reverse ELISA, competition: pre-incubated with rabbit PAP, then RF-coated plate (competitor: RF); lower = more inhibition.
The target is the same in experiment [26]. Description: reverse ELISA, competition: pre-incubated with rabbit PAP, then C1q-coated plate (competitor: C1q); lower = more inhibition.
For experiment [27] the target is unchanged. Description: reverse ELISA, competition: pre-incubated with rabbit PAP, then FcγIII-coated plate (competitor: FcγIII); lower = more inhibition.
For experiment [28] the target is unchanged. Description: reverse ELISA, competition: pre-incubated with rabbit PAP, then FcγIIa-coated plate (competitor: FcγIIa); lower = more inhibition.
The target is the same in experiment [29]. Description: reverse ELISA, competition: pre-incubated with rabbit PAP, then FcγIIb-coated plate (competitor: FcγIIb); lower = more inhibition.
The target of experiment [30] is human monomeric IgG (Research Diagnostics). Description: RF test, competition: peptide pre-incubated 1 hour with human monomeric IgG, washed, then 200 I.U. RF (competitor); OD = RF bound, lower = more inhibition.

Chain of FcγIIb (P31994 43-217): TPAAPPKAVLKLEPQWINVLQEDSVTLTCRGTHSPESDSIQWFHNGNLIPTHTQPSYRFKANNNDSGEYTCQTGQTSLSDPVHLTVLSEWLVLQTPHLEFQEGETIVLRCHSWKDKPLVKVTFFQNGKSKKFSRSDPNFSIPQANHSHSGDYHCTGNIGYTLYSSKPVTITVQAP
Chain of human C1q (human) (P02745 23-245 limits assumed, chain 1 of 3): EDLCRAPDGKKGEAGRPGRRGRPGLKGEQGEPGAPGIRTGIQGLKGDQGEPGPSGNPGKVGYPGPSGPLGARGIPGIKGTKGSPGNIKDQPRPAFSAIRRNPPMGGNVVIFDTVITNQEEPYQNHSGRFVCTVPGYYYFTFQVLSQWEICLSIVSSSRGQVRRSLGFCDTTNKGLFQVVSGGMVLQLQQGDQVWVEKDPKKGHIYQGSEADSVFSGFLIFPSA
Chain of human C1q (human) (P02746 28-253 limits assumed, chain 2 of 3, further chain): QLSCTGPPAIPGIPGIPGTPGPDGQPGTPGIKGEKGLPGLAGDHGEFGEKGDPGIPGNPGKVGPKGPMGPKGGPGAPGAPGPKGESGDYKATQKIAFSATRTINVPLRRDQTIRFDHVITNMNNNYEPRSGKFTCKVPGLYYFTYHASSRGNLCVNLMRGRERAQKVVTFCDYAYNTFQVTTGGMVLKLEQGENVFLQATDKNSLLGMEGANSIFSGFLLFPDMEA
Chain of human C1q (human) (P02747 29-245 limits assumed, chain 3 of 3, further chain): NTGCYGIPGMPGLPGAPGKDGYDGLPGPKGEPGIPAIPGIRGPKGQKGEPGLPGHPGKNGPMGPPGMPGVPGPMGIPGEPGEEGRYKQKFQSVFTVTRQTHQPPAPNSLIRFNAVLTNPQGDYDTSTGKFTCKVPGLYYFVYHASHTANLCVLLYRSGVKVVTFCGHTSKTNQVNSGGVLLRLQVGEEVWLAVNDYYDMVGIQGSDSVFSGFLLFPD
Chain of FcγIIa (P12318 34-217): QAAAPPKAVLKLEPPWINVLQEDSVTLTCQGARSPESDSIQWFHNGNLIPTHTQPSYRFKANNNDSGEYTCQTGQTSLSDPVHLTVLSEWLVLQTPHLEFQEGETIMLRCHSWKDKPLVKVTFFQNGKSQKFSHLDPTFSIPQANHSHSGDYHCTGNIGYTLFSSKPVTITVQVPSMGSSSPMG

Consider Histone (Sigma), for which, in experiment [1], the OD 405 nm amounted to 0.057 OD.

Regarding “peroxidase-anti-peroxidase (PAP) immune complex (preformed immune complex of peroxidase and anti-peroxidase IgG)”, the OD 405 nm in [2] is 0.467 OD; in experiment [6], 1.03 OD; in experiment [7] it was 2.35 OD; in experiment [8] it was 1.59 OD; in [9], 1.6 OD; in [10], 1.39 OD. For the same molecule, the OD 405 nm was determined as 1.27 OD in experiment [11], 0.716 OD in experiment [12], 2.34 OD in experiment [13] and 2.11 OD in [14]. Further, the OD 450 nm in [3], in experiment [4] and in experiment [5] was 3.6 OD in each case.

For the molecule myelin basic protein (MBP, Sigma), the OD 405 nm in [15] turned out to be 0.139 OD.

B1: … peptide (SEQ ID NO:42) (peptide)
peptide: DCAWHLGELAACT
modifications: cyclized by a disulfide bond between the two cysteine residues
For B1, the OD 405 nm stood at 0.622 OD in experiment [16]; 0.557 OD in experiment [17]; 0.706 OD in [21]; 0.729 OD in experiment [22]; 1.4 OD in experiment [23]. Also, the OD 450 nm in [18] was found to be 1.34 OD; in experiment [19], 1.48 OD; in [20], 1.07 OD.

B2: … peptide (SEQ ID NO:5) (peptide)
peptide: RCARHLGELVWCT
modifications: disulfide 2-12 (inferred)
Consider B2, for which the OD 405 nm in experiment [16] is 0.152 OD; in [17] it was 0.191 OD; in experiment [21], 0.569 OD; in experiment [22], 0.359 OD; in [24], 0.247 OD; in [23], 1.31 OD. In addition, the results for the OD 450 nm in experiment [18], in experiment [19] and in experiment [20] were 3.5 OD, 3.4 OD and 3.28 OD, respectively.

B3: … peptide (printed in Table 8 with SEQ ID NO:14) (peptide)
peptide: APPDCARHLGELVWCT
modifications: cyclized by a disulfide bond between the two cysteine residues
Turning to B3, in [17], the OD 405 nm was 0.107 OD.

B4: … peptide (SEQ ID NO:3) (peptide)
peptide: DCAFHLGELVWCT
modifications: cyclized by a disulfide bond between the two cysteine residues
Turning to B4, the OD 405 nm in [25] amounted to 0.267 OD; in [26] it was 0.859 OD; in [27] it was 0.81 OD; in experiment [28], 0.66 OD; in experiment [29] it was 0.51 OD; in experiment [30] it was 0.962 OD.

B5: … peptide (SEQ ID NO:4) (peptide)
peptide: DCARHLGELVWCT
modifications: disulfide 2-12 (inferred)
B5: the OD 405 nm in [16] came to 0.109 OD; in experiment [17], 0.096 OD; in experiment [21], 0.473 OD; in experiment [22] it was 0.363 OD; in [24], 0.193 OD; in experiment [23], 1.23 OD. Moreover, the OD 450 nm stood at 2.53 OD in experiment [18], 2.54 OD in experiment [19] and 1.95 OD in [20].

B6: … peptide (SEQ ID NO:41) (peptide)
peptide: PCARHLGELVWCT
modifications: disulfide 2-12 (inferred)
Regarding B6, the OD 405 nm is 0.106 OD in [16]; 0.129 OD in experiment [17]; 0.489 OD in experiment [21]; 0.444 OD in experiment [22]; 0.205 OD in experiment [24]; 1.32 OD in experiment [23]. Further, the values for the OD 450 nm in experiment [18], in experiment [19] and in experiment [20] were 1.6 OD, 1.15 OD and 1.21 OD, respectively.

B7: … peptide (SEQ ID NO:40) (peptide)
peptide: DCAAHLGELAACT
modifications: cyclized by a disulfide bond between the two cysteine residues
For B7, the OD 450 nm in experiment [18] was determined as 2.41 OD; in [19], 2.43 OD; in experiment [20] it was 2.26 OD. Besides, the OD 405 nm in experiment [24] was 0.458 OD; in [23], 1.42 OD.
